Measurements taken from paper PMC9473479.
Several values for one entry are separate records, joined by “and”; a condition that tells them apart may be missing. Equal entries are not always repeated.

Assays:
[1] = target: S40-H StrepII-tagged at its C-terminus (murine SPD scaffold carrying EsxH in the collagen-like region, CRD replaced by the murine CD40L 115-260 ectodomain) (Mus musculus | Mycobacterium tuberculosis | murine) (UniProt P27548); experiment: non-reducing SDS-PAGE and Western blot
[2] = target: S40-H StrepII-tagged at its C-terminus (murine SPD scaffold carrying EsxH in the collagen-like region, CRD replaced by the murine CD40L 115-260 ectodomain) (Mus musculus | Mycobacterium tuberculosis | murine) (UniProt P27548); experiment: SEC; 50x-concentrated supernatant of LV::S40-H-StrepII-transduced HEK293T cells on Superose 6 HR 10/30, 50 mM phosphate buffer pH 7.5, 150 mM NaCl; calibrated with standard proteins; fractions analysed by Western blot in reducing conditions

## S40-H StrepII-tagged at its C-terminus (murine SPD scaffold carrying EsxH in the collagen-like region, CRD replaced by the murine CD40L 115-260 ectodomain) (from UniProt P27548 115-260)
[1]
  stoichiometry N: 2 and 4 and 3
[2]
  stoichiometry N: 2 and 3 and 4
